The values that follow come from US20230036928A1 (Sanofi, published 2023).

The target of this assay is T1, TGF-β2.
T1 sequence (P61812 303-414, species assumed, looked up): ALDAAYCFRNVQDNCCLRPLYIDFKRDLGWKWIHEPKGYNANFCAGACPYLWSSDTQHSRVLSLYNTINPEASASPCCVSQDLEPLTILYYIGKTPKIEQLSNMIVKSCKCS
Description: cell-based or functional assay.

B1: Ab1 (antibody, human IgG4 S228P, kappa, V domains shown)
VH: QVQLVQSGAEVKKPGSSVKVSCKASGYTFSSNVISWVRQAPGQGLEWMGGVIPIVDIANYAQRFKGRVTITADESTSTTYMELSSLRSEDTAVYYCASTLGLVLDAMDYWGQGTLVTVSS
VL: ETVLTQSPGTLSLSPGERATLSCRASQSLGSSYLAWYQQKPGQAPRLLIYGASSRAPGIPDRFSGSGSGTDFTLTISRLEPEDFAVYYCQQYADSPITFGQGTRLEIKR
For the molecule B1, the “relative potency (EC50 of the reference divided by EC50 of the test sample) in mink lung cell proliferation assay with PrestoBlue read-out” value was ~1 ratio (relative potency).
